Measurements reported in patent US20200277392A1 (Hoffmann-La Roche, published 2020).
Numbering of substitutions follows the chain as printed. Names may count otherwise.

Columns and labels:
[1] = biological target: T1, human OX40 Fc(kih), monomeric Fc-linked human OX40 antigen ECD (human, UniProt P0DOX5 223-449 = IgG part); assay: SPR (Biacore T200, 25 °C): bispecific held on immobilised human TnC; human OX40 Fc(kih) at 250 nM injected for 90 s as analyte 2
T1 construct: Heterodimer of one OX40 ECD (aa 29-214)-AcTEV-Fc knob-Avi chain and one Fc hole chain; Biotinylated at the Avi tag for phage selection and ELISA; also called recombinant OX40 Fc (kih) receptor; biotinylated human OX40
Procedure: (§1) All SPR experiments were performed on a Biacore T200 at 25° C. with HBS-EP as running buffer (0.01 M HEPES pH 7.4, 0.15 M NaCl, 3 mM EDTA, 0.005% Surfactant P20, Biacore, Freiburg/Germany).
Biotinylated human TnC was directly coupled to a flow cell of a streptavidin (SA) sensor chip. Immobilization levels up to 1000 resonance units (RU) were used.
Bulk refractive index differences were corrected for by subtracting the response obtained in a reference flow cell, where no protein was immobilized.

human OX40 on cells [2] = biological target: T2, human OX40 on cells (human, UniProt P43489 29-277); assay: flow cytometry on OX40+ cells (activated human PBMC)
T2 construct: also called CD134; OX40+ Cells
T2 sequence: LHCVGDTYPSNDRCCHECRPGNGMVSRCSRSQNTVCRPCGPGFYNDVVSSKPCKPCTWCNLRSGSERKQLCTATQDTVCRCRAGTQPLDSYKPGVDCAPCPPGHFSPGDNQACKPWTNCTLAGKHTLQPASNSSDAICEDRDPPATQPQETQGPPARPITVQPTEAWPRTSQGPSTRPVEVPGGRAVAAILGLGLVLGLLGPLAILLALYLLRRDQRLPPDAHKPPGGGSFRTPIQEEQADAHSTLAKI
Procedure: (§2) For labeling, cells were harvested, washed with pre-warmed (37° C.) DPBS and adjusted to a cell density of 1×10⁷ cells/mL in DPBS. eFluor670 cell proliferation dye (eBioscience, Cat.-No. 65-0840-85) was added to the suspension of naïve human PBMC at a final concentration of […] and a final cell density of 0.5×10⁷ cells/mL in DPBS. Cells were then incubated for 10 min at room temperature in the dark. To stop the labeling reaction, 4 mL heat inactivated FBS was added and cells were washed three times with T cell medium. A 2:1 mixture of 1×10⁵ resting eFluor670 labeled human PBMC and 0.5×10⁵ unlabeled activated human PBMC were then added to each well of round-bottomed suspension cell 96-well plates (Greiner bio-one, cellstar, Cat. No. 650185).
(§3) Cells were stained for 120 minutes at 4° C. in the dark in 50 μL/well 4° C. FACS buffer containing different amounts of the indicated antigen binding molecules. After three washes with 4° C. FACS buffer, cells were stained for 45 minutes at 4° C. in the dark in 25 μL/well 4° C. FACS buffer containing a mixture of fluorescently labeled anti-human CD4 (clone RPA-T4, mouse IgG1 k, BioLegend, Cat.-No. 300532), anti-human CD8 (clone RPa-T8, mouse IgGlk, BioLegend, Cat.-No. 3010441) and Fluorescein isothiocyanate (FITC)-conjugated AffiniPure anti-human IgG Fcγ-fragment-specific goat IgG F(ab′)₂ fragment (Jackson ImmunoResearch, Cat.-No. 109-096-098).
Cells were then resuspended in […] FACS-buffer containing 0.2 μg/mL DAPI (Santa Cruz Biotec, Cat. No. Sc-3598) and acquired the same day using 5-laser LSR-Fortessa (BD Bioscience with DIVA software).

[3] = biological target: T3, mouse TnC with C-terminal Avi- and His-tags (mouse, biotinylated at the C-terminal Avi-tag); assay: SPR Biacore T200, biotinylated TnC on SA chip, bispecific as analyte, 1:1 fit, apparent KD (bivalent binding)
T3 construct: the N-terminal fn5 and C-terminal fn6 parts look like the human ones; also called muTnC; murine TnC
T3 chain: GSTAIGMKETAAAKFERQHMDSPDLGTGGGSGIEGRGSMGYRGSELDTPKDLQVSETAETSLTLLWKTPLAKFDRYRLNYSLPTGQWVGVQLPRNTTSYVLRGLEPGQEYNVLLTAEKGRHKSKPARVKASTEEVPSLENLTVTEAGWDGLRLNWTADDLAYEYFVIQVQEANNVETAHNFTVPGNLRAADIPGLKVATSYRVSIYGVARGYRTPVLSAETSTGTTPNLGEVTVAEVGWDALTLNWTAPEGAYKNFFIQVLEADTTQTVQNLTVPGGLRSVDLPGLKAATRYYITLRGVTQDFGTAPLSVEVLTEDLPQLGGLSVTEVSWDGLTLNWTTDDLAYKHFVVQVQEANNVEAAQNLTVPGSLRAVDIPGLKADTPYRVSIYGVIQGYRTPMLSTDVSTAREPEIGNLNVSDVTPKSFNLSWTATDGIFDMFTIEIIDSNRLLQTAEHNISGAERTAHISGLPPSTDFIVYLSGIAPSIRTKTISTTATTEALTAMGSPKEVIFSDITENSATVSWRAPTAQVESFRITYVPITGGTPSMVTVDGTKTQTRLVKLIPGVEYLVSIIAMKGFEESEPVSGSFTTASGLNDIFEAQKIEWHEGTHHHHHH
Procedure: as §1, with “The capacity of the bispecific constructs to bind human, murine and cynomolgus TnC was analysed by surface plasmon resonance (SPR). All” for “All”
(§4) Biotinylated human, murine or cynomolgus TnC molecules were immobilised on a SA chip to reach an immobilization level of 10 resonance units (RU).
(§5) Following immobilisation, the bispecific molecules or control molecules were immediately passed over the chip surface at concentrations ranging from 0.05-50 nM, at a flow rate of 30 μL/minute for 120 seconds and a dissociation phase of 180 seconds. The surface was regenerated using 10 mM glycine pH2.1. Bulk refractive index differences were corrected for by subtracting the response obtained in a reference flow cell, where no TnC was immobilized. Affinity/Avidity was determined under these experimental conditions using the Langmuir 1:1 curve fitting. For bivalent binding the same 1:1 fitting was used leading to an apparent KD value.

[4] = biological target: T4, cynomolgus TnC with C-terminal Avi- and His-tags (cynomolgus, biotinylated at the C-terminal Avi-tag); assay: as above
T4 construct: also called cynoTnC; cyno TnC
T4 chain: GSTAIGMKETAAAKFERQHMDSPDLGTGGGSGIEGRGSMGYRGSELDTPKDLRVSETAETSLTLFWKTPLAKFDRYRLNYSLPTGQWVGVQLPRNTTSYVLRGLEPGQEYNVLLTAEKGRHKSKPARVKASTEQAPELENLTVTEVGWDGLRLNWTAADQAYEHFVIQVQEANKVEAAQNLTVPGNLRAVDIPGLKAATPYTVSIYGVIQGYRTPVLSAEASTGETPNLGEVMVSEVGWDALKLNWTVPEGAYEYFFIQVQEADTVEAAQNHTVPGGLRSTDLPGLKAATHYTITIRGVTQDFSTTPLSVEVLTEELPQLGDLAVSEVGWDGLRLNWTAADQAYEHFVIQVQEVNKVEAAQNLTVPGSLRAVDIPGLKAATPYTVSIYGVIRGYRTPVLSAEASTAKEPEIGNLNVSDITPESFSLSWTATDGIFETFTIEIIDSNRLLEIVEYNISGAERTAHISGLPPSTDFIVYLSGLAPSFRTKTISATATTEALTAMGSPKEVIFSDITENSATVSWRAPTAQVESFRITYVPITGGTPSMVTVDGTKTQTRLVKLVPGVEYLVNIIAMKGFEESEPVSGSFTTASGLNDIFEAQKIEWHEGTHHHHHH
Procedure: as §1, with “The capacity of the bispecific constructs to bind human, murine and cynomolgus TnC was analysed by surface plasmon resonance (SPR). All” for “All”
as §4, §5

human OX40 on cells [5] = biological target: T2, human OX40 on cells; assay: flow cytometry on activated human PBMC, gated on CD8+ T cells; FITC anti-human IgG secondary; MFI baseline corrected
Procedure: as §2
as §3, with “109-096-098). […]” for “109-096-098).”

[6] = biological target: T1, human OX40 Fc(kih), monomeric Fc-linked …; assay: ELISA, Fab-containing bacterial supernatants on biotinylated human OX40 on neutravidin plates, anti-Flag/HRP detection
Procedure: Selections were carried out over 3 or 4 rounds using constant antigen concentrations of 100 nM. […] In rounds 2 and 4, in order to avoid enrichment of binders to neutravidin, capture of antigen: phage complexes was performed by addition of 5.4×10⁷ streptavidin-coated magnetic beads. […] Fab-containing bacterial supernatants were added and binding Fabs were detected via their Flag-tags using an anti-Flag/HRP secondary antibody. […] They were bacterially expressed in a 0.5 liter culture volume, affinity purified and further characterized by SPR-analysis using BioRad's ProteOn XPR36 biosensor.

B1: 49B4/TnC 18D4 P329GLALA 4 + 2 (ID8035) (bispecific antibody, human IgG1, kappa, L234A L235A)
heavy: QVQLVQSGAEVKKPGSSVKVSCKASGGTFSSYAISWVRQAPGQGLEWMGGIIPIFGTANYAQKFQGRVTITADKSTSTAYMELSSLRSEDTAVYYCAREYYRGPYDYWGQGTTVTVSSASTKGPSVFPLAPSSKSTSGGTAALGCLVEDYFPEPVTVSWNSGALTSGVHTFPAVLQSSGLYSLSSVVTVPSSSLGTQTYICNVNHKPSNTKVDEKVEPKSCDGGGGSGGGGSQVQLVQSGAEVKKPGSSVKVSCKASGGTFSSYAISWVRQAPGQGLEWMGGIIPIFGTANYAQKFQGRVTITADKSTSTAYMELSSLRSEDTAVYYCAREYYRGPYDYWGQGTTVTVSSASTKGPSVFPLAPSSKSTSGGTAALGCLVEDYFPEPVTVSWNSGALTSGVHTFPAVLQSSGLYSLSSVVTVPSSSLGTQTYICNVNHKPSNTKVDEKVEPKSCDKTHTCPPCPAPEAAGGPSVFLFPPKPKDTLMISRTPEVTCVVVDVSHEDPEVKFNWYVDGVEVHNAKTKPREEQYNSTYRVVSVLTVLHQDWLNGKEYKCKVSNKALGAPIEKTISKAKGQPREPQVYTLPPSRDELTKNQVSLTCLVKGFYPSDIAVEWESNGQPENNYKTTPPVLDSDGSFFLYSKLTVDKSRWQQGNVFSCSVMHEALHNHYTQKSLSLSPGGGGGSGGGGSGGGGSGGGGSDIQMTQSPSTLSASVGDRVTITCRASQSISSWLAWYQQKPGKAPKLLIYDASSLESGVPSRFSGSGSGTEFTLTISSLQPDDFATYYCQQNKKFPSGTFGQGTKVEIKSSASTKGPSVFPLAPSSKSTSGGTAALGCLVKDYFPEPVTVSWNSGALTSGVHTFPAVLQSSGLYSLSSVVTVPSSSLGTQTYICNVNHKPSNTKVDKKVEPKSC
light 1: DIQMTQSPSTLSASVGDRVTITCRASQSISSWLAWYQQKPGKAPKLLIYDASSLESGVPSRFSGSGSGTEFTLTISSLQPDDFATYYCQQYSSQPYTFGQGTKVEIKRTVAAPSVFIFPPSDRKLKSGTASVVCLLNNFYPREAKVQWKVDNALQSGNSQESVTEQDSKDSTYSLSSTLTLSKADYEKHKVYACEVTHQGLSSPVTKSFNRGEC
light 2: QVQLVQSGAEVKKPGSSVKVSCKASGGTFSSYAISWVRQAPGQGLEWMGGIIPIFGTANYAQKFQGRVTITADKSTSTAYMELSSLRSEDTAVYYCAKGNFYGGLDYWGQGTTVTVSSASVAAPSVFIFPPSDEQLKSGTASVVCLLNNFYPREAKVQWKVDNALQSGNSQESVTEQDSKDSTYSLSSTLTLSKADYEKHKVYACEVTHQGLSSPVTKSFNRGEC
notes: huIgG1 P329G LALA; also called 49B4/18D4 4 + 2; 4 + 2 TnC (18D4)
B1 was tested, and the binding result [1] was “binds”, the EC50 (human OX40 on cells [2]) was 0.08 nM and the Kd [3] was 0.65 nM. For the same binder, the Kd [4] was 0.4 nM and the “EC50 (read off the curve)” value (human OX40 on cells [5]) was about 0.1 nM.

B2: 49B4/TnC 18D4 P329GLALA 2 + 2 (ID7216) (bispecific antibody, human IgG1, kappa, L234A L235A)
heavy: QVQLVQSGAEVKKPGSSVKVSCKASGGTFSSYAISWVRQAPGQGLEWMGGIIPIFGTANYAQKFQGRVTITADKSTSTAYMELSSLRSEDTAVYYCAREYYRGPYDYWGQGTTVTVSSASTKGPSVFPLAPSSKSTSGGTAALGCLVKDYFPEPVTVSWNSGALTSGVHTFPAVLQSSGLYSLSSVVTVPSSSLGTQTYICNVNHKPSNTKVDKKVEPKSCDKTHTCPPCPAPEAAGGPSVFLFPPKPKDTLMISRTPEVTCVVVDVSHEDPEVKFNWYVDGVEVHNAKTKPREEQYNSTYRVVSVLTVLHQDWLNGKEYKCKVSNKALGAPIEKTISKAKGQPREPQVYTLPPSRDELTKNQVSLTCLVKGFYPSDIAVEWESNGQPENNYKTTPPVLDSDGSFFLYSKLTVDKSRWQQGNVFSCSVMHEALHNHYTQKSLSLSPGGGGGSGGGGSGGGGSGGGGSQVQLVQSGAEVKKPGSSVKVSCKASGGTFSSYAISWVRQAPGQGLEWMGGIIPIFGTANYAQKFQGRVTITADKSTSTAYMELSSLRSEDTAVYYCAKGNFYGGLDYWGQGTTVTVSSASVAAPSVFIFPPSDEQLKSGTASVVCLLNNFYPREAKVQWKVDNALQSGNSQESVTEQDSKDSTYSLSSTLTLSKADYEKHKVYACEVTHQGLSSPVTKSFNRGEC
light 1: B1 light 1 with R123E, K124Q
light 2: DIQMTQSPSTLSASVGDRVTITCRASQSISSWLAWYQQKPGKAPKLLIYDASSLESGVPSRFSGSGSGTEFTLTISSLQPDDFATYYCQQNKKFPSGTFGQGTKVEIKSSASTKGPSVFPLAPSSKSTSGGTAALGCLVKDYFPEPVTVSWNSGALTSGVHTFPAVLQSSGLYSLSSVVTVPSSSLGTQTYICNVNHKPSNTKVDKKVEPKSCD
notes: huIgG1 P329G LALA; 49B4 VHCH1-Fc-(G4S)4-18D4 VHCL heavy chain, 49B4 VLCL light chain, 18D4 VLCH1 crossed light chain; also called 2 + 2 (49B4/18D4); 49B4/18D4 2 + 2
For B2, the binding result [1] was “binds”, the EC50 (human OX40 on cells [2]) was 6.59 nM and the Kd [3] was 0.3 nM. The Kd [4] was 0.28 nM.

B3: 49B4/TnC 18D4 P329GLALA 4 + 1 (ID7745) (bispecific antibody, human IgG1, kappa, L234A L235A)
heavy 1: not shown
heavy 2: not shown
light: B1 light 1 with R123E, K124Q
B3: binds [1].

B4: anti-OX40 clone 17A9, Fab (Fab, V domains shown)
VH: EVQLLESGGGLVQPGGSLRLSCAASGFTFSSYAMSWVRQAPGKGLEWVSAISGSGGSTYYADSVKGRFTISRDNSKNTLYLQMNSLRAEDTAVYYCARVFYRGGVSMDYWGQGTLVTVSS
VL: SSELTQDPAVSVALGQTVRITCQGDSLRSYYASWYQQKPGQAPVLVIYGKNNRPSGIPDRFSGSSSGNTASLTITGAQAEDEADYYCNSRVMPHNRVFGGGTKLTV
notes: Flag-tagged Fab in bacterial supernatant (phage library lambda-DP47); also called OX40(17A9)
B4: binds [6].

B5: anti-OX40 clone 8H9, Fab (Fab, V domains shown)
VH: QVQLVQSGAEVKKPGSSVKVSCKASGGTFSSYAISWVRQAPGQGLEWMGGIIPIFGTANYAQKFQGRVTITADKSTSTAYMELSSLRSEDTAVYYCAREYGWMDYWGQGTTVTVSS
VL: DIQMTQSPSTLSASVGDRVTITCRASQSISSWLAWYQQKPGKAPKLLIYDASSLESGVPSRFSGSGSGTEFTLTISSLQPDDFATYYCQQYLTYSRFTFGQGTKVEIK
notes: Flag-tagged Fab in bacterial supernatant (phage library DP88-4); also called OX40(8H9)
B5: binds [6].

B6: anti-OX40 clone 1G4, Fab (Fab, V domains shown)
VH: B5 VH with W102S
VL: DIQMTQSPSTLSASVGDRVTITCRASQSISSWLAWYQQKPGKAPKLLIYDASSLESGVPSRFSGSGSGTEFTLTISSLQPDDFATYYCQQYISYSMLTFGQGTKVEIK
notes: Flag-tagged Fab in bacterial supernatant (phage library DP88-4); also called OX40(1G4)
B6: binds [6].

B7: anti-OX40 clone 20B7, Fab (Fab, V domains shown)
VH: QVQLVQSGAEVKKPGSSVKVSCKASGGTFSSYAISWVRQAPGQGLEWMGGIIPIFGTANYAQKFQGRVTITADKSTSTAYMELSSLRSEDTAVYYCARVNYPYSYWGDFDYWGQGTTVTVSS
VL: DIQMTQSPSTLSASVGDRVTITCRASQSISSWLAWYQQKPGKAPKLLIYDASSLESGVPSRFSGSGSGTEFTLTISSLQPDDFATYYCQQYQAFSLTFGQGTKVEIK
notes: Flag-tagged Fab in bacterial supernatant (phage library DP88-4); also called OX40(20B7)
B7: binds [6].

B8: anti-OX40 clone 49B4, Fab (Fab, V domains shown)
VH: QVQLVQSGAEVKKPGSSVKVSCKASGGTFSSYAISWVRQAPGQGLEWMGGIIPIFGTANYAQKFQGRVTITADKSTSTAYMELSSLRSEDTAVYYCAREYYRGPYDYWGQGTTVTVSS
VL: B7 VL with Q92S, A93S, F94Q, S95P, L96Y
notes: Flag-tagged Fab in bacterial supernatant (phage library DP88-4); also called OX40(49B4)
B8: binds [6].
